{"source": "IntAct's records for PubMed 31515488", "parents": {"B1": {"name": "Cyclin-dependent kinase 4 inhibitor D (Homo sapiens), P55273 (parent)", "chain": "MLLEEVRAGDRLSGAAARGDVQEVRRLLHRELVHPDALNRFGKTALQVMMFGSTAIALELLKQGASPNVQDTSGTSPVHDAARTGFLDTLKVLVEHGADVNVPDGTGALPIHLAVQEGHTAVVSFLAAESDLHRRDARGLTPLELALQRGAQDLVDILQGHMVAPL"}, "B2": {"name": "Centrosomal protein of 55 kDa (Homo sapiens), Q53EZ4 (parent)", "chain": "MSSRSTKDLIKSKWGSKPSNSKSETTLEKLKGEIAHLKTSVDEITSGKGKLTDKERHRLLEKIRVLEAEKEKNAYQLTEKDKEIQRLRDQLKARYSTTTLLEQLEETTREGERREQVLKALSEEKDVLKQQLSAATSRIAELESKTNTLRLSQTVAPNCFNSSINNIHEMEIQLKDALEKNQQWLVYDQQREVYVKGLLAKIFELEKKTETAAHSLPQQTKKPESEGYLQEEKQKCYNDLLASAKKDLEVERQTITQLSFELSEFRRKYEETQKEVHNLNQLLYSQRRADVQHLEDDRHKTEKIQKLREENDIARGKLEEEKKRSEELLSQVQFLYTSLLKQQEEQTRVALLEQQMQACTLDFENEKLDRQHVQHQLHVILKELRKARNQITQLESLKQLHEFAITEPLVTFQGETENREKVAASPKSPTAALNESLVECPKCNIQYPATEHRDLLVHVEYCSK", "partner": "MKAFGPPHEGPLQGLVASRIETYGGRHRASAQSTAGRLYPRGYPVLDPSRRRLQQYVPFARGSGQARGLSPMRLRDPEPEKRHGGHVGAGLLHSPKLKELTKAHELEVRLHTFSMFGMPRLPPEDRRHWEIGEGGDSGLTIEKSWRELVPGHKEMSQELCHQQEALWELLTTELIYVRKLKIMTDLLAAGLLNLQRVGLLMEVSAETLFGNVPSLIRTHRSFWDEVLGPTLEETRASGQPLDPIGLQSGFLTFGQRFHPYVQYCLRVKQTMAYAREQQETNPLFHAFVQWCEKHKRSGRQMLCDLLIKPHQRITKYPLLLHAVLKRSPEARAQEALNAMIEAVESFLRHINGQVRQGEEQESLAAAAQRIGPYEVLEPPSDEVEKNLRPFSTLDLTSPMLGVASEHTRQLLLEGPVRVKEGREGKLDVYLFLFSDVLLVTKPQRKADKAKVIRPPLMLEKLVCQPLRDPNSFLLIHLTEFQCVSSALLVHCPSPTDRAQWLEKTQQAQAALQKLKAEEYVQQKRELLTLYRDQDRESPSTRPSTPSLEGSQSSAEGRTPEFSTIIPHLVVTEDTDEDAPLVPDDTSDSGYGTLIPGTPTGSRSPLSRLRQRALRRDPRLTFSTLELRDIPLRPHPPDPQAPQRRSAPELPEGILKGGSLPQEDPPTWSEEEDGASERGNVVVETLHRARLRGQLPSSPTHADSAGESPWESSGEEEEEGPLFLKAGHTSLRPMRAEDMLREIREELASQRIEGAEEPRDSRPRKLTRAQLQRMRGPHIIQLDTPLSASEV"}, "B3": {"name": "Progranulin (Homo sapiens), P28799 (parent)", "chain": "MWTLVSWVALTAGLVAGTRCPDGQFCPVACCLDPGGASYSCCRPLLDKWPTTLSRHLGGPCQVDAHCSAGHSCIFTVSGTSSCCPFPEAVACGDGHHCCPRGFHCSADGRSCFQRSGNNSVGAIQCPDSQFECPDFSTCCVMVDGSWGCCPMPQASCCEDRVHCCPHGAFCDLVHTRCITPTGTHPLAKKLPAQRTNRAVALSSSVMCPDARSRCPDGSTCCELPSGKYGCCPMPNATCCSDHLHCCPQDTVCDLIQSKCLSKENATTDLLTKLPAHTVGDVKCDMEVSCPDGYTCCRLQSGAWGCCPFTQAVCCEDHIHCCPAGFTCDTQKGTCEQGPHQVPWMEKAPAHLSLPDPQALKRDVPCDNVSSCPSSDTCCQLTSGEWGCCPIPEAVCCSDHQHCCPQGYTCVAEGQCQRGSEIVAGLEKMPARRASLSHPRDIGCDQHTSCPVGQTCCPSLGGSWACCQLPHAVCCEDRQHCCPAGYTCNVKARSCEKEVVSAQPATFLARSPHVGVKDVECGEGHFCHDNQTCCRDNRQGWACCPYRQGVCCADRRHCCPAGFRCAARGTKCLRREAPRWDAPLRDPALRQLL", "partner": "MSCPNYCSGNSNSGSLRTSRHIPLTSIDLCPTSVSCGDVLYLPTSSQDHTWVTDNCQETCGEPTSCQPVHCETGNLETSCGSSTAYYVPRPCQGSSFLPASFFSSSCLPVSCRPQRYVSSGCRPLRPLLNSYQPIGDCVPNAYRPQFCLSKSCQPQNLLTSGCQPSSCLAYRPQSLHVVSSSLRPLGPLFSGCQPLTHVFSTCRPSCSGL"}, "B4": {"name": "Coiled-coil domain-containing protein 74A (Homo sapiens), Q96AQ1 (parent)", "chain": "MSGAGVAAGTRPPSSPTPGSRRRRQRPSVGVQSLRPQSPQLRQSDPQKRNLDLEKSLQFLQQQHSEMLAKLHEEIEHLKRENKDLHYKLIMNQTSQKKDGPSGNHLSRASAPLGARWVCINGVWVEPGGPSPARLKEGSSRTHRPGGKRGRLAGGSADTVRSPADSLSMSSFQSVKSISNSGKARPQPGSFNKQDSKADVSQKADLEEEPLLHNSKLDKVPGVQGQARKEKAEASNAGAACMGNSQHQGRQMGAGAHPPMILPLPLRKPTTLRQCEVLIRELWNTNLLQTQELRHLKSLLEGSQRPQAAPEEASFPRDQEATHFPKVSTKSLSKKCLSPPVAERAILPALKQTPKNNFAERQKRLQAMQKRRLHRSVL"}, "B5": {"name": "Peroxisomal biogenesis factor 3 (Homo sapiens), P56589 (parent)", "chain": "MLRSVWNFLKRHKKKCIFLGTVLGGVYILGKYGQKKIREIQEREAAEYIAQARRQYHFESNQRTCNMTVLSMLPTLREALMQQLNSESLTALLKNRPSNKLEIWEDLKIISFTRSTVAVYSTCMLVVLLRVQLNIIGGYIYLDNAAVGKNGTTILAPPDVQQQYLSSIQHLLGDGLTELITVIKQAVQKVLGSVSLKHSLSLLDLEQKLKEIRNLVEQHKSSSWINKDGSKPLLCHYMMPDEETPLAVQACGLSPRDITTIKLLNETRDMLESPDFSTVLNTCLNRGFSRLLDNMAEFFRPTEQDLQHGNSMNSLSSVSLPLAKIIPIVNGQIHSVCSETPSHFVQDLLTMEQVKDFAANVYEAFSTPQQLEK", "partner": "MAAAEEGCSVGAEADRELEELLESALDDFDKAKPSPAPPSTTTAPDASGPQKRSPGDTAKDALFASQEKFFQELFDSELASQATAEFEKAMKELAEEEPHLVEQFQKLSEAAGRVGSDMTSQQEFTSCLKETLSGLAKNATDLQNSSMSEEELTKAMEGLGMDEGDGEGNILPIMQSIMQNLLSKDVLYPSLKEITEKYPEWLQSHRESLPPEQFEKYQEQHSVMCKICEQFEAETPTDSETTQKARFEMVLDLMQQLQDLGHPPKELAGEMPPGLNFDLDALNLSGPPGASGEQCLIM"}, "B6": {"name": "Syntaxin-3 (Homo sapiens), Q13277 (parent)", "chain": "MKDRLEQLKAKQLTQDDDTDAVEIAIDNTAFMDEFFSEIEETRLNIDKISEHVEEAKKLYSIILSAPIPEPKTKDDLEQLTTEIKKRANNVRNKLKSMEKHIEEDEVRSSADLRIRKSQHSVLSRKFVEVMTKYNEAQVDFRERSKGRIQRQLEITGKKTTDEELEEMLESGNPAIFTSGIIDSQISKQALSEIEGRHKDIVRLESSIKELHDMFMDIAMLVENQGEMLDNIELNVMHTVDHVEKARDETKKAVKYQSQARKKLIIIIVLVVVLLGILALIIGLSVGLN", "partner": "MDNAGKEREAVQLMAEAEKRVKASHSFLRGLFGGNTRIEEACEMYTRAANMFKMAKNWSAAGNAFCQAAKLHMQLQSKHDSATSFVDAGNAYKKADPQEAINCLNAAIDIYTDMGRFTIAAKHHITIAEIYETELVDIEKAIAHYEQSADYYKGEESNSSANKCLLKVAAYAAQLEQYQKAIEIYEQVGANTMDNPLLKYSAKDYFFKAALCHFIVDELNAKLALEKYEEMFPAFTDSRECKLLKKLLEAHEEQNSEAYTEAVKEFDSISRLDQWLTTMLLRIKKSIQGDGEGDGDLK"}, "B7": {"name": "Myeloid leukemia factor 1 (Homo sapiens), P58340 (parent)", "chain": "MFRMLNSSFEDDPFFSESILAHRENMRQMIRSFSEPFGRDLLSISDGRGRAHNRRGHNDGEDSLTHTDVSSFQTMDQMVSNMRNYMQKLERNFGQLSVDPNGHSFCSSSVMTYSKIGDEPPKVFQASTQTRRAPGGIKETRKAMRDSDSGLEKMAIGHHIHDRAHVIKKSKNKKTGDEEVNQEFINMNESDAHAFDEEWQSEVLKYKPGRHNLGNTRMRSVGHENPGSRELKRREKPQQSPAIEHGRRSNVLGDKLHIKGSSVKSNKK", "partner": "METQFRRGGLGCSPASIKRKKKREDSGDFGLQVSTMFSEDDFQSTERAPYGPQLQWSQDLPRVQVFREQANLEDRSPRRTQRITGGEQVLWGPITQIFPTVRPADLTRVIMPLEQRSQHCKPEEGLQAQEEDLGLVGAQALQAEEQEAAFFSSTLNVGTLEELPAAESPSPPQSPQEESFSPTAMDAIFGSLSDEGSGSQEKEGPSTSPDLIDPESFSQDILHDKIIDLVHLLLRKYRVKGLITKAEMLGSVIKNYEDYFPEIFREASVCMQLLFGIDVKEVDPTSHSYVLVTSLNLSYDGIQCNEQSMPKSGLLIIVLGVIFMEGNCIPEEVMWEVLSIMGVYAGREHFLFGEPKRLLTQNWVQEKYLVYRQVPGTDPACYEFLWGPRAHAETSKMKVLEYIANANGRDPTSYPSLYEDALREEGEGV"}, "B8": {"name": "Stabilizer of axonemal microtubules 1 (Homo sapiens), Q8IYX7 (parent)", "chain": "MKTKCICELCSCGRHHCPHLPTKIYDKTEKPCLLSEYTENYPFYHSYLPRESFKPRREYQKGPIPMEGLTTSRRDFGPHKVAPVKVHQYDQFVPSEENMDLLTTYKKDYNPYPVCRVDPIKPRDSKYPCSDKMECLPTYKADYLPWNQPRREPLRLEHKYQPASVRFDNRTTHQDDYPIKGLVKTISCKPLAMPKLCNIPLEDVTNYKMSYVAHPVEKRFVHEAEKFRPCEIPFESLTTQKQSYRGLMGEPAKSLKPLARPPGLDMPFCNTTEFRDKYQAWPMPRMFSKAPITYVPPEDRMDLLTTVQAHYTCPKGAPAQSCRPALQIKKCGRFEGSSTTKDDYKQWSSMRTEPVKPVPQLDLPTEPLDCLTTTRAHYVPHLPINTKSCKPHWSGPRGNVPVESQTTYTISFTPKEMGRCLASYPEPPGYTFEEVDALGHRIYKPVSQAGSQQSSHLSVDDSENPNQRELEVLA"}}}
{"variants_of": "B1", "conditions": "with cdk6_human CDK6, Q00534"}
{"variant": "P67L", "effect of a mutation on the interaction": "with no effect"}
{"variant": "P142S", "effect of a mutation on the interaction": "with no effect"}
{"variant": "V94M", "effect of a mutation on the interaction": "with no effect"}
{"variant": "A121S", "effect of a mutation on the interaction": "with no effect"}
{"variants_of": "B1", "conditions": "with nr4a1_human NR4A1, P22736"}
{"variant": "P142S", "effect of a mutation on the interaction": "disrupting interaction strength"}
{"variant": "A121S", "effect of a mutation on the interaction": "with no effect"}
{"variants_of": "B1", "conditions": "with nr4a2_human NR4A2, P43354"}
{"variant": "P142S", "effect of a mutation on the interaction": "with no effect"}
{"variant": "A121S", "effect of a mutation on the interaction": "with no effect"}
{"variants_of": "B1", "conditions": "with cdk4_human CDK4, P11802"}
{"variant": "A121S", "effect of a mutation on the interaction": "with no effect"}
{"variants_of": "B2", "conditions": "with pkhg6_human PLEKHG6, Q3KR16"}
{"variant": "L59F", "effect of a mutation on the interaction": "with no effect"}
{"variants_of": "B3", "conditions": "with kr261_human KRTAP26-1, Q6PEX3"}
{"variant": "G515A", "effect of a mutation on the interaction": "with no effect"}
{"variant": "R433W", "effect of a mutation on the interaction": "with no effect"}
{"variant": "D536E", "effect of a mutation on the interaction": "with no effect"}
{"variants_of": "B4", "conditions": "with mtus2_human MTUS2, Q5JR59"}
{"variant": "G302R", "effect of a mutation on the interaction": "with no effect"}
{"variants_of": "B5", "conditions": "with pex19_human PEX19, P40855"}
{"variant": "D347Y", "effect of a mutation on the interaction": "with no effect"}
{"variant": "Q82R", "effect of a mutation on the interaction": "with no effect"}
{"variants_of": "B6", "conditions": "with snab_human NAPB"}
{"variant": "G276S", "effect of a mutation on the interaction": "with no effect"}
{"variant": "H198Y", "effect of a mutation on the interaction": "with no effect"}
{"variants_of": "B7", "conditions": "with magab_human MAGEA11, P43364"}
{"variant": "P226T", "effect of a mutation on the interaction": "with no effect"}
{"variants_of": "B8", "conditions": "with rbtn2_human LMO2, P25791"}
{"variant": "N464K", "effect of a mutation on the interaction": "disrupting interaction strength"}
{"variant": "D118G", "effect of a mutation on the interaction": "with no effect"}
{"variants_of": "B8", "conditions": "with fhl3_human FHL3, Q13643"}
{"variant": "N464K", "effect of a mutation on the interaction": "with no effect"}
{"variant": "D118G", "effect of a mutation on the interaction": "with no effect"}
